Experimental findings from US6693079 are described below.

Positions of bridges follow the written chain, without caps; N, C: chain ends. No end group written: not given here.

Sequences and labels used below:
T1: recombinant human IGFBP-1 (human, UniProt P08833 26-259)
T1 construct: Plate-coated, biotinylated or coupled to a dextran chip, depending on the assay; also called rhIGFBP-1; biotinylated IGFBP-1
T1 sequence (looked up): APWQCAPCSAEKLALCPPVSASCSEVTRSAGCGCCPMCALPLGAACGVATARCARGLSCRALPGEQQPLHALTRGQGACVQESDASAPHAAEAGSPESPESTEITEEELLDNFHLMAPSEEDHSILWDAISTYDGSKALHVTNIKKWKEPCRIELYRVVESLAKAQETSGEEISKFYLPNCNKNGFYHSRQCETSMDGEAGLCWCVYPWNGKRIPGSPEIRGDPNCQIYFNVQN

B1: bp1-19 (peptide)
peptide: SEMVCRAGPLQWLCEIYF-NH2
modifications: disulfide 5-14 (inferred)
notes: Peptide from g3 bp1-01 secondary libraries
B2: bp1-21A (peptide)
peptide: SEVGCRAGPLQWLCEKYFSTY-NH2
modifications: disulfide 5-14 (inferred)
notes: as for B1
B3: bp1-21B (peptide)
peptide: CRAGPLQWLCEKYFSTY-NH2
modifications: disulfide 1-10 (inferred)
notes: as for B1
B4: bp1-20 (peptide)
peptide: EARVCRAGPLQWLCEKYF-NH2
modifications: disulfide 5-14 (inferred)
notes: as for B1
B5: bp1027 (peptide)
peptide: CKAGPLLWLCERFF
notes: Peptide from g8 bp1-01 secondary libraries
B6: bp1030 (peptide)
peptide: CKEGPLLWLCERFF
notes: as for B5
B7: bp1-12 (peptide)
peptide: CKEGPLQWLCEKYF
notes: as for B5
B8: bp1-13 (peptide)
peptide: CKEGPLLWLCEKYF
notes: as for B5
B9: bp1-10 (peptide)
peptide: CRKGPLQWLCELYF
notes: as for B5
B10: bp1-11 (peptide)
peptide: CRKGPLQWLCEKYF
notes: as for B5
B11: bp1029 (peptide)
peptide: CREGPLQWLCERFF
notes: as for B5
B12: bp68 (peptide)
peptide: CRAGPLQWLCEKFF
notes: as for B5
B13: bp1028 (peptide)
peptide: CRAGPLQWLCERFF
notes: as for B5
B14: bp1-15 (peptide)
peptide: CAAGPLQWLCEKYF
notes: as for B5

The first test deals with T1, recombinant human IGFBP-1. Briefly: BIAcore competition assay or ELISA plate assay. (Surface plasmon resonance follows binding to a sensor surface in real time, without labels.)
As for B1, the binding result is “binds”.

With B2, the binding result is “binds”.

As to B3, the binding result was “binds”.

Take B4: the binding result is reported as “binds”.

In a further test the target is T2, recombinant human IGFBP-3 (human, UniProt P17936 28-291).
T2 construct: also called rhIGFBP-3; biotinylated IGFBP-3
T2 sequence (P17936 28-291 limits assumed): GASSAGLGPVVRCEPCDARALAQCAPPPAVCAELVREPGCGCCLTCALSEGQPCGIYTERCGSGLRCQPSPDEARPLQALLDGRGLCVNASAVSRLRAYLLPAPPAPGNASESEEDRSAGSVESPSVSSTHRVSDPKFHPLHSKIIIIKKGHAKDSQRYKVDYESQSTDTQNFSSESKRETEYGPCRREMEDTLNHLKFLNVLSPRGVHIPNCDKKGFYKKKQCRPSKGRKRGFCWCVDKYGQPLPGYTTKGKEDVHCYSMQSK
Briefly: BIAcore competition assay.
Regarding ASEEVCWPVAEWYLCN (bp3-01-ox variant) [bp3-30], the binding result is “binds”.

Regarding CWPVAEWYLCN [bp3-25 (SEQ ID NO:106)], the binding result is reported as “binds”.

With EEVCWPVAEWYLCN (bp3-01-ox variant) [bp3-28], the binding result is reported as “binds”.

Regarding EVCWPVAEWYLCN (bp3-01-ox variant) [bp3-27], the binding result is given as “binds”.

Turning to ASEEVCWPVAEWYLCNMWGR [4d3.3 (peptide)], the binding result is reported as “binds”.

Take GPETCWPVAEWYLCN (bp3-01-ox variant) [bp3-41]: the binding result is listed as “binds”.

The target in a further test is T1, recombinant human IGFBP-1. Briefly: ELISA plate assay or BIAcore competition, IGF-I inhibition.
With B5, the binding result was “binds”.

Regarding B6, the binding result was “binds”.

In the case of B7, the binding result was “binds”.

For the molecule B8, the binding result is reported as “binds”.

In the case of B9, the binding result is on record as “binds”.

With B10, the binding result is reported as “binds”.

On to B11, for which the binding result is “binds”.

For the molecule B12, the binding result is recorded as “binds”.

As for B13, the binding result is given as “binds”.

For the molecule B14, the binding result was “binds”.

In a further test the target is T1, recombinant human IGFBP-1. Briefly: ELISA competition, C-terminal bp1-01 variants. In general terms: An ELISA detects its analyte on a solid surface through an enzyme-linked reagent.
Consider CRAGPLQWLCEKAA (C-terminal variant of bp1-01) [bp1-18], for which the binding result is “binds”.
